# Values quoted from earlier work, collected in PMC11724285.
# Tested on: NF-κB (subunit not stated)
sequence,measurement,value
GAUACUUGAAACUGUAAGGUUGGCGUAUA [NF-κB RNA aptamer (29 nt)],Kd,5 nM
